In patent US20240124597A1 (Bristol-Myers Squibb, published 2024):

Columns and labels:
[1] = biological target: T1, human-CD40-monomer protein (human, UniProt P25942 21-193, limits assumed); assay: SPR, Ab captured on protein A, hCD40 monomer 500 and 50 nM, 1:1 fit; supernatant
T1 construct: Soluble monomer generated in house, used as SPR analyte; also called hCD40; hCD40-monomer
In short: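 Antibodies captured on protein A surface; human CD40 monomer injected as analyte at 500 nM and 50 nM. Kinetic data from both concentrations fitted to 1:1 Langmuir model to estimate kinetic and affinity values. Supernatant titers determined by BLI protein A capture against a control antibody standard curve.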

[2] = biological target: T1, human-CD40-monomer protein; assay: SPR, Ab captured on protein A, hCD40 monomer 500 and 50 nM, 1:1 fit; supernatant; sup (supernatant); Vh-hz2 / Vk-hz2
Procedure: Titer analysis was performed using Biolayer Interferometry (BLI) on an Octet RED instrument (Fortebio) by capturing antibodies from supernatant using protein A sensor tips and measuring capture response with respect to a standard curve obtained using a control antibody sample. SPR data were obtained by capturing antibodies on a protein A surface and testing the binding of 500 nM and 50 nM injections of human-CD40 analyte, using a BIAcore™ T200 instrument (GE Healthcare). The kinetic data for the two concentrations of hCD40-monomer were fit to a 1:1 Langmuir model, to yield estimates of the kinetic and affinity values for these interactions, and for comparison of the different molecules.

T1 sequence (P25942 21-193 limits assumed): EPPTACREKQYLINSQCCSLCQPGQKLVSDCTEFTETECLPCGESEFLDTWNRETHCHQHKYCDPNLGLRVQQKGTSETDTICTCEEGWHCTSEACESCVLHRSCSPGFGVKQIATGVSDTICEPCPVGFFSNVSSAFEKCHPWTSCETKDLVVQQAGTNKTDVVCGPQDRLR

B1: Y12XX-hz16 (antibody, human IgG1, kappa, V domains shown)
VH: QVQLVQSGAEVKKPGSSVKVSCKASGYAFTSYWMHWVRQRPGQGLEWMGFINPTTGYSEYNQKFKDRVTITADKSTSTAYMELSSLRSEDTAVYYCARWGLPPFAYWGQGTLVTVSS
VL: DIQMTQSPSFLSASVGDRVTITCKASQDVSTAVAWYQQKPGKAPKLLIYSASYRYTGVPSRFSGSGSGTDFTLTISSLQPEDFATYYCQQHYSTPWTFGGGTKVEIKR
notes: Humanized, IgG1-P238K; supernatant sample
B1 was tested, and the Kd [1] was 3.2 nM, the koff [1] was 0.00064 s⁻¹ and the kon [2] was 200000 M⁻¹ s⁻¹.
